One substance from article PMC11481574 can be followed below.

Where “and” joins values, the source holds several entries; their conditions need not be identical. Equal values may be shown once.

The experiment concerns the target Vibrio His-FliFG fusion protein with the FliG-G214S mutation (Vibrio alginolyticus). Nature of the experiment: cryo-EM structure; single-particle cryo-EM of the purified, concentrated MS-ring in buffer with LMNG; grids frozen after blotting at 4°C, 100% humidity; two classes with 35- or 34-fold rotational symmetry.

Usually stoichiometry N stands for a count of units in the complex or per binding partner. Consider “Vibrio His-FliFG fusion protein with the FliG-G214S mutation”, for which the stoichiometry N is 35 and 34.
